The record followed here is publication PMC2714593, “Insights into the role of Val45 and Gln182 of Escherichia coli MutY in DNA substrate binding and specificity”.

The target in data set [1] is T1, EcMutY Q182L (Escherichia coli, UniProt P17802 1-350, Q182L).
T1 sequence: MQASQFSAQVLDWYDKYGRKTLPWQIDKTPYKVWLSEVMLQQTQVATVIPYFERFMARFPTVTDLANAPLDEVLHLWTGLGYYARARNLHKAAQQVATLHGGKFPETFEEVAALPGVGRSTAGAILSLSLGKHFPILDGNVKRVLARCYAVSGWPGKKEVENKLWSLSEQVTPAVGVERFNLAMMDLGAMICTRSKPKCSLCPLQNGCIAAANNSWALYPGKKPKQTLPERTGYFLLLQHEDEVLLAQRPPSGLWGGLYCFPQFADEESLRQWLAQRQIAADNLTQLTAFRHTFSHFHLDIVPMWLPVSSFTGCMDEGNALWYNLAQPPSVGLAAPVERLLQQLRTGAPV
Briefly: EMSA; 20 mM Tris-HCl pH 7.6, 80 mM NaCl, 1 mM DTT, 1 mM EDTA, 2.9% glycerol, 20 ng poly dI/dC per 20 ul, 0.09 nM labeled DNA, 30 min at 30 C; 4% PAGE in TBE. To be noted: protein: recombinant; label: 5'-32P on X strand; blunt; T/G mismatch at strand 1 position 22. (Mobility shift assays separate free from complexed probe on a gel.)

The target in data set [2] is T2, EcMutY V45A (Escherichia coli, UniProt P17802 1-350, V45A).
T2 sequence: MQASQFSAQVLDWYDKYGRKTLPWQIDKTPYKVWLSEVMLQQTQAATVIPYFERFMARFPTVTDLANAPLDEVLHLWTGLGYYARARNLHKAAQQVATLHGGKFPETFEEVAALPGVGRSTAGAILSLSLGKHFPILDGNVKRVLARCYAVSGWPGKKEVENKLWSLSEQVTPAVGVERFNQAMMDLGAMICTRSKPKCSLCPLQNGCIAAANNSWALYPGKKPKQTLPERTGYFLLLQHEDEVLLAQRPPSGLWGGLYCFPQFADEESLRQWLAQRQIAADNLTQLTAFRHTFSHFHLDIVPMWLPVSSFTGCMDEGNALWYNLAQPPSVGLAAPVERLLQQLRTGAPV
The data set is described as above. To be noted: protein: recombinant; label: 5'-32P on X strand; blunt; T/G mismatch at strand 1 position 22.

In general, Kd refers to a measure of binding affinity in units of concentration.

B1: T/G 44-mer (dsDNA)
DNA 1: AATTGGGCTCCTCGAGGAATTTGCCTTCTGCAGGCATGCCCCGG
DNA 2: CCGGGGCATGCCTGCAGAAGGCGAATTCCTCGAGGAGCCCAATT
As for B1, the results for the dissociation constant (Kd) in data set [1] and in data set [2] were 0.043 ± 0.014 nM and 0.011 ± 0.004 nM, respectively.
